Experimental data published in paper PMC9055099, “Transcription factor CsWRKY40 regulates L-theanine hydrolysis by activating the CsPDX2.1 promoter in tea leaves during withering”.

Assays:
CsWRKY40 [1] = target: T1, CsWRKY40 (Camellia sinensis, UniProt A0A4S4ET85 1-292); test: EMSA; LightShift Chemiluminescent EMSA kit (ThermoFisher) per instructions; buffer, salt, pH and temperature not stated; conditions: protein: recombinant; tags: GST (pGEX-4T-1); label: 3' biotin on both strands; blunt
CsWRKY40 [2] = target: T1, CsWRKY40; test: competition; unlabelled competitor against biotin probe N1; shift gradually reduced with increasing cold probe; LightShift Chemiluminescent EMSA kit (ThermoFisher) per instructions; buffer, salt, pH and temperature not stated; conditions: protein: recombinant; tags: GST (pGEX-4T-1); blunt

T1 sequence (A0A4S4ET85 entry or part of it): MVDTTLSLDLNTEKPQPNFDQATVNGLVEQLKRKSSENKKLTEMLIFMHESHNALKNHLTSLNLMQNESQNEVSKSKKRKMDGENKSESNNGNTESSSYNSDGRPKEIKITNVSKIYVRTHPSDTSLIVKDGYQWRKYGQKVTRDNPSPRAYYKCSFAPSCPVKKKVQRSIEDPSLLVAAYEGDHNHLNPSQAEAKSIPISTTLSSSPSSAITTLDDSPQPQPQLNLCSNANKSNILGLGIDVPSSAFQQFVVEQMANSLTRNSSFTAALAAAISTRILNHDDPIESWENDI

| Binder | binding result (CsWRKY40 [1]) | binding result (CsWRKY40 [2]) |
| --- | --- | --- |
| CsPDX2.1 promoter W box 2 biotin probe (dsDNA) DNA 1: TTTATTTAAGAATTGACCGTAGATAACTTT DNA 2: AAAGTTATCTACGGTCAATTCTTAAATAAA | binds | – |
| cold probe (W box 2) (dsDNA) DNA 1: TTTATTTAAGAATTGACCGTAGATAACTTT DNA 2: AAAGTTATCTACGGTCAATTCTTAAATAAA | – | binds |
| mutant probe (TTGACC to AAAAAA) (dsDNA) DNA 1: TTTATTTAAGAAAAAAAAGTAGATAACTTT DNA 2: AAAGTTATCTACTTTTTTTTCTTAAATAAA | no binding | – |
